Measured values: paper PMC11880984, “Altered O‐glycosylation of β1‐adrenergic receptor N‐terminal single‐nucleotide variants modulates receptor processing and functional activity” (The Febs Journal, 2024)
Each block holds one substance with its values, some of them ahead of it.

Key:
[1] = Western blot, N-terminal cleavage, CHO-ldlD cells
[2] = Flow cytometry, surface full-length receptor, cMyc antibody, HEK293i; conditions: control: S49 (WT) variant
[3] = molecular target: human β1-adrenergic receptor S49G389 variant (human) (UniProt P08588)
Chain of human β1-adrenergic receptor S49G389 variant (human) (P08588 whole entry, change not shown): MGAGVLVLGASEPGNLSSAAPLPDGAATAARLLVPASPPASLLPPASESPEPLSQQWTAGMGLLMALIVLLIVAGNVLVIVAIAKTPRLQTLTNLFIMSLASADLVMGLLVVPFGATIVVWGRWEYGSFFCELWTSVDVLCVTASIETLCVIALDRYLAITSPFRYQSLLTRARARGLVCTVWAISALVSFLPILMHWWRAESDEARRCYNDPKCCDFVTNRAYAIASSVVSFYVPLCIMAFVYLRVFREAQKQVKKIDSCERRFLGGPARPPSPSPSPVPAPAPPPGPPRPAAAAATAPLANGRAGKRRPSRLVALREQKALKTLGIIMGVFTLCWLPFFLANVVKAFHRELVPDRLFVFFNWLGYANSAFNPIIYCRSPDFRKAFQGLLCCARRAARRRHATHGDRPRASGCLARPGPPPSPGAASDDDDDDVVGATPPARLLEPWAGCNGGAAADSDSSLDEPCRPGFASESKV

[4] = molecular target: human β1-adrenergic receptor G49G389 variant (human) (UniProt P08588)
Chain of human β1-adrenergic receptor G49G389 variant (human) (P08588 whole entry S49G): as the sequence (P08588 whole entry, change not shown) above, with S49G counted along it

[5] = molecular target: human β1-adrenergic receptor G49R389 variant (human) (UniProt P08588)
Chain of human β1-adrenergic receptor G49R389 variant (human) (P08588 other isoform, or with tags, fused parts or gaps S49G | R389 (the paper's WT allele at rs1801253) | mutant): as the sequence (P08588 whole entry, change not shown) above, with S49G, G389R counted along it

[6] = Western blot, cleavage at R31↓L32; HEK293, CHO-K1, NRVM; conditions: glycan lost; control: S49 (WT) variant
[7] = Western blot, P52↓L53 cleavage in isolated HEK293i membranes; conditions: glycan lost; control: S49 (WT) variant
[8] = Western blot, N-terminal cleavage, rat cardiomyocytes; conditions: glycan lost

Chain of β-arrestin2 fused to Renilla luciferaseII (P32121 whole entry, the tested form may be a part): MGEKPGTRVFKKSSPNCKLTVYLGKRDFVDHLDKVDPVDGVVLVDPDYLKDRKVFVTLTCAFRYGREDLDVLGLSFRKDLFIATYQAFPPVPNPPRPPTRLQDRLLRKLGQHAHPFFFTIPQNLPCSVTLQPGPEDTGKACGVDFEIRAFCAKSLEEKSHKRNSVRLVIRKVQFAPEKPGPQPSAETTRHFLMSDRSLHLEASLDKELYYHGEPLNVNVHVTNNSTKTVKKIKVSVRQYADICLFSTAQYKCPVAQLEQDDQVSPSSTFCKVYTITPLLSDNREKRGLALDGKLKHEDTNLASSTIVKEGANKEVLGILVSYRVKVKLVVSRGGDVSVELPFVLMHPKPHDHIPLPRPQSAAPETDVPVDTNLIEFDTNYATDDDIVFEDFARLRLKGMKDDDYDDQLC

Substance: human β1‐adrenergic receptor (hβ1AR): no GalNAc, no Gal
other: proteolytic processing ([1]; glycan lost, control: S49 (WT) in CHO-ldlD with Gal + GalNAc): increases

Substance: human β1‐adrenergic receptor (hβ1AR): T29 variant
expression_or_secretion ([2]; glycan gained): increases

E max of isoproterenol-induced β-arrestin2 recruitment to the plasma membrane, enhanced bystander BRET (β-arrestin2-RlucII with rGFP-CAAX) in HEK293S cells, normalised to S49R389 [3]: 89.4 % WT E max | E max of isoproterenol-induced β-arrestin2 recruitment to the plasma membrane, enhanced bystander BRET (β-arrestin2-RlucII with rGFP-CAAX) in HEK293S cells, normalised to S49R389 [4]: 83.3 % WT E max | E max of isoproterenol-induced β-arrestin2 recruitment to the plasma membrane, enhanced bystander BRET (β-arrestin2-RlucII with rGFP-CAAX) in HEK293S cells, normalised to S49R389 [5]: 97.8 % WT E max
Substance: β-arrestin2 fused to Renilla luciferaseII (from UniProt P32121 1-409) (natural protein)

Substance: human β1‐adrenergic receptor (hβ1AR): G49 variant
other: proteolytic processing [6]: no change | expression_or_secretion ([2]; glycan lost): no change | other: proteolytic processing [7]: increases

Substance: human β1‐adrenergic receptor (hβ1AR): GalNAc only (Tn)
other: proteolytic processing ([1]; glycan changed form, control: S49 (WT) in CHO-ldlD with Gal + GalNAc): increases | other: proteolytic processing ([1]; glycan changed form, control: T29 variant in CHO-ldlD with Gal + GalNAc): no change

Substance: human β1‐adrenergic receptor (hβ1AR): Galnt2 KO
other: proteolytic processing ([8]; control: S49 (WT) in WT NRVMs): increases | other: proteolytic processing ([8]; control: T29 variant in WT NRVMs): no change
